Data on one molecule can be found in PMC11739670 (2024).

Assay [1] has as its target HLA-A*01:01 peptide-MHC class I (biotinylated pMHCI) (human | , biotin on the Avi-tag (BirA ligase)). In words: SPR; average over HLA-A1 peptides, 25°C. A general note: Surface plasmon resonance follows binding to a sensor surface in real time, without labels.
Assay [2] addresses HLA-A*03:01 peptide-MHC class I (biotinylated pMHCI) (human | , biotin on the Avi-tag (BirA ligase)). The assay can be described thus: SPR; average over HLA-A3 peptides, 25°C.
The target in assay [3] is HLA-A*24:02 peptide-MHC class I (biotinylated pMHCI) (human | , biotin on the Avi-tag (BirA ligase)). The assay can be described thus: SPR; average over HLA-A24 peptides, 25°C.

B1: soluble human CD8αβ-Fc heterodimer (Fc fusion)
chain 1: not shown
chain 2: LQQTPAYIKVQTNKMVMLSCEAKISLSNMRIYWLRQRQAPSSDSHHEFLALWDSAKGTIHGEEVEQEKIAVFRDASRFILNLTSVKPEDSGIYFCMIVGSPELTFGKGTQLSVVDFLPTTAQPTKKSTLKKRVCRLPRPETQKGPLCSP
By Kd is commonly meant a measure of binding affinity in units of concentration. Consider B1, for which the Kd worked out at 120 µM in assay [1], 133 µM in assay [2] and 214 µM in assay [3].
